From patent EP2801619A1 (Fondazione Edmund Mach, dated 2014)

B1: CURVATURE THYLAKOID1C (CURT1C) of Arabidopsis thaliana, endogenous protein in thylakoid membranes (other)
chain: ASGESSDSSTDLDVVSTIQNVWDKSEDRLGLIGLGFAGIVALWASLNLITAIDKLPVISSGFELVGILFSTWFTYRYLLFKPDRQELSKIVKKSVADILGQ
notes: Thylakoid membrane protein as found in plant thylakoids; also called At1g52220
B2: CURT1A with a C-terminal cmyc tag, expressed in curt1a-2 or WT plants (other)
chain: ASSEETSSIDTNELITDLKEKWDGLENKSTVLIYGGGAIVAVWLSSIVVGAINSVPLLPKVMELVGLGYTGWFVYRYLLFKSSRKELAEDIESLKKKIAGSE
notes: Coding region under the 35S promoter; also called CURT1A-cmyc; cmyc-tagged CURT1A; not shown: C-terminal cmyc tag from vector pPCV812deltaNotI-Lola
B3: CURVATURE THYLAKOID1A (CURT1A) of Arabidopsis thaliana, endogenous protein in thylakoid membranes (other)
chain: B2 chain
notes: Thylakoid membrane protein as found in plant thylakoids; also called At4g01150

How the values were obtained:
[1] = target: B3; assay: 2D-BN/SDS-PAGE of thylakoid multiprotein complexes (Fig. 5b)
[2] = target: the molecule itself; assay: quantification of CURT1A crosslinking products from thylakoids of WT and CURT1A-cmyc overexpressors
[3] = target: the molecule itself; assay: chemical crosslinking (BS3) of thylakoid proteins, SDS-PAGE and immunoblot, WT against curt1 mutants

Binder: B1
binding result [1]: binds

Binder: B2
binding result [2]: binds

Binder: B3
binding result [3]: binds
